According to US20190204338A1 (PHYLOGICA, published 2019):
Where no end group is shown, it is not given here. His tag = polyhistidine tag from vector pDEST-HisMBP; MBP = not defined here

What was measured:
[1] = molecular target: T1, MBP-MAP4K4-CNH (biotinylated, immobilised) (human, UniProt P0AEX9 27-392 = MBP; O95819 926-1213, limits assumed, biotinylated (site not given)); assay: BLI (Octet-RED), titration, compared with MBP-RAP2A in the same system
T1 construct: 45 ug/ml on streptavidin biosensors; also called CNH domain of MAP4K4; biotinylated MAP4K4-CNH
Description: (§1) Data were acquired with the Data Acquisition software version 6.2 and all steps/dilutions were performed in baseline buffer (PBS pH 8.0) at a rotation rate of 1000 rpm.

[2] = molecular target: T1, MBP-MAP4K4-CNH (biotinylated, …); assay: BLI (Octet-RED), titration 100-1000 nM, global 1:1 fit, immobilised biotinylated MAP4K4-CNH
Description: as §1

[3] = molecular target: T1, MBP-MAP4K4-CNH (biotinylated, …); assay: BLI (Octet-RED), single concentration 1 uM, local 1:1 fit, immobilised biotinylated MAP4K4-CNH
Description: as §1

B1: MBP-25C3 (Phylomer 25C3 expressed as a His-MBP tagged fusion) (peptide)
chain: {His tag-MBP}-LGAAGPTHYDHLDCAR
modifications: reading uncertain; also: linker between MBP and peptide not given here
notes: Purified as monomeric protein; also called 25C3 fusion peptide; not shown: His tag of vector pDEST-HisMBP
With B1 the “fold lower binding affinity than RAP2A” value [1] was 5 fold, the Kd [2] was 28 nM and the koff [2] was 0.0001 s⁻¹. It also gave a Kd [3] of 23.5 nM and a koff [3] of 4.4e-05 s⁻¹.
